Assay results published in US7820179B2, “Pegylated PTH as PTH receptor modulators and uses thereof” (Eli Lilly and Company, priority 2006, dated 2010).
No end group written: not given here.

Tests used:
Type in all cases: in vivo, rat
[1] = test system: young adult osteopenic ovariectomized rats; assay: Young adult osteopenic ovariectomized rats: femur BMD (QCT) and serum calcium; details: young adult Ovx rats
Method: Female Sprague-Dawley rats about 3 months of age are ovariectomized, except for sham controls, and maintained on a 12 hour light/dark cycle at 22° C. with ad lib access to food (TD 89222 with 0.5% Ca and 0.4% P, Teklad, Madison, Wis.) and water. Ovariectomized (Ovx) rats are allowed to lose bone for 25 days, and then weighed and randomized into treatment groups. Treatment is by subcutaneous injection of a compound of the invention at various doses (as indicated in Table 2 below) for 1 month in a vehicle of 20 mM NaH2PO4 in 0.9% NaCl, 3 mg/ml mannitol, pH 5. The rats are injected with the compounds every third or fourth day to approximate once weekly administration to a human. Sham and Ovx controls are treated with the vehicle only (“sham vehicle control” and “ovx vehicle control”). Sera are collected by cardiac puncture approximately 24 hours after final injection under isoflurane anesthesia at necropsy (approximately 24 hours after the final injection), and analyzed using a clinical chemistry analyzer (Hitachi 917, Tokyo, Japan).
At necropsy, left femora are removed, cleaned of soft-tissue and stored in 50% ethanol/saline at 4° C. At room temperature, femora in 50% EtOH/saline are wrapped in Parafilm and centered with respect to the gantry for quantitative computed tomography (QCT) (Research M, Stratec). […]

[2] = test system: aged osteopenic ovariectomized rats; assay: Aged osteopenic ovariectomized rats: vertebral BMD/BMC, bone biomechanical strength, serum calcium
Method: Hypercalcemia is defined herein as the upper 97.5 percentile serum calcium value of normal ovariectomized vehicle controls for the animal type used, using clinical chemistry data and sera collected from cardiac puncture (International Federation of Clinical Chemistry, H E Solberg in Tietz Fundamentals of Clinical Chemistry, 5th edition, Burtis C A and Ashwood E R, editors, 2001, pp 251-261). The value reflecting the 97.5 percentile is 11.2 mg of calcium per dL of serum from ovx vehicle control. The “Hypercalcemic Dose”, i.e., the dose at which hypercalcemia is observed 24 hours after injection of the test compound using clinical chemistry data and sera collected from cardiac puncture, is determined by interpolation, using regression analysis to fit the calcemic dose response observed 24 hours after administering the compound to ovariectomized rats.
Female Sprague-Dawley rats about 6 months of age are ovariectomized, except for sham controls, and maintained on a 12 hour light/dark cycle at 22° C. with ad lib access to food (TD 89222 with 0.5% Ca and 0.4% P, Teklad, Madison, Wis.) and water. Ovariectomized (Ovx) rats are allowed to lose bone for one month before treatment with compounds of the invention for two additional months. The compound to be tested is subcutaneously administered at various doses (as indicated in Table 3 below) in a vehicle of 20 mM NaH2PO4 in 0.9% NaCl, 3 mg/ml mannitol, pH 5, every 6 or 7 days for two months. Sham and Ovx controls are treated with the vehicle only (“sham vehicle control” and “ovx vehicle control”). Sera are then collected by cardiac puncture under isoflurane anesthesia at necropsy, and analyzed using a clinical chemistry analyzer. Lumbar vertebra L4-6 and left femora are removed, cleaned of soft-tissue and stored in 50% ethanol/saline at 4° C. At room temperature, L-5 in 50% EtOH/saline are wrapped in Parafilm and centered with respect to the QCT gantry (Research M, Stratec). A coronal scout scan of the L-5 vertebra is generated first in 2D before 3D analysis. QCT parameters are measured including BMD (mg/cc), BMC (mg), and cross-sectional area (mm^2). Lumbar vertebra L-5, femoral midshaft, and proximal femur are then prepared for biomechanical testing. Strength (N) is evaluated by loading the specimens to failure as described previously (Sato, et al., Endocrinology, […]:4330-4337, 1997).
Pegylated compounds of the invention are evaluated in this assay relative to a positive control of 3-5 μg/kg/d PTH(1-38). PTH(1-34) and PTH(1-38) are found to be indistinguishable in terms of skeletal efficacy or calcemic effects in osteopenic ovariectomized rats. It has been previously shown that rats administered 5 μg/kg/d (1 nmol/kg/d) PTH(1-34) have a systemic exposure that is about 3 times that of PTH(1-34) (i.e., FORTEO™) in humans (Tashjian and Chabner, J. Bone Miner Res, 17:1151-1161, 2002; Tashjian and Gagel, J. Bone Miner Res, 21:354-365, 2006). […] This is confirmed for PTH(1-38) in this model with a dosing of 3-5 μg/kg/d.

[3] = test system: aged osteopenic ovariectomized rats; assay: Direct comparison of 2 kD and 5 kD pegylated SEQ ID NO: 1 in aged osteopenic ovariectomized rats; details: for Serum Calcium: 24 hours after dosing
Source text: A compound of the invention with SEQ ID NO: 1, wherein the mPEG to which it is conjugated is a 2 kD mPEG, is directly compared to a compound of the invention with SEQ ID NO: 1, wherein the mPEG to which it is conjugated is a 5 kD mPEG. Aged osteopenic ovariectomized rats are permitted to lose bone for one month before dosing (nmol/kg as in Table 5 and 6) every 6 days with vehicle alone, or the 2 kD pegylated SEQ ID NO: 1 compound or the 5 kD pegylated SEQ ID NO: 1 compound for 8 weeks.

[4] = 11 nmol/kg every 6 days for 8 weeks
[5] = 32 nmol/kg every 6 days for 8 weeks
[6] = 108 nmol/kg every 6 days for 8 weeks

## SEQ ID NO: 1 with 5 kD mPEG (SVSEIQLMHNLGRHLASMERVEWLRKLLQDVHNF-NH2; not fully specified (residue 26))
[1]
  Hypercalcemic Dose/BMD Dose: >8.8
[2]; derived from Table 3
  Hypercalcemic Dose/Femoral Neck Strength Dose: >9.7
  Hypercalcemic Dose/Midshaft Strength Dose: >1.0
  Hypercalcemic Dose/Vertebral BMC Dose: >3.34
  Hypercalcemic Dose/Vertebral BMD Dose: >1.0
  Hypercalcemic Dose/Vertebral Strength Dose: >1.0
[2]; dose at which Sham level of vertebral BMC is achieved
  Vertebral BMC Dose: 32 nmol/kg
[2]; dose at which Sham level of vertebral BMD is achieved, s.c. every 6 or 7 days for two months
  Vertebral BMD Dose: >108 nmol/kg
[2]; dose at which femoral neck strength comparable to sham vehicle control and positive control is achieved
  Fem Neck Strength Dose: 11 nmol/kg
[2]; dose at which midshaft strength comparable to sham vehicle control and positive control is achieved
  Midshaft Strength Dose: 108 nmol/kg
[2]; dose at which vertebral strength comparable to sham and positive control is achieved
  Vertebral Strength Dose: 108 nmol/kg
[2]; sera 24 hours after administration, > means highest dose tested, not reached
  Hypercalcemia Dose: >107 nmol/kg
[3]; [4]
  Vertebral BMD: 567 mg/cc
  Serum Calcium: 10.86 mg/dL
[3]; [5]
  Vertebral BMD: 589 mg/cc
  Serum Calcium: 10.79 mg/dL
[3]; [6]
  Vertebral BMD: 612 mg/cc
  Serum Calcium: 11.03 mg/dL
